Test results reported in PMC12209456, “Serine/threonine/tyrosine kinase 1 drives pancreatic carcinogenesis via GSK3β sequestration-mediated Wnt/β-catenin pathway hyperactivation” (Signal Transduction and Targeted Therapy, 2025).

B1: Wnt3a: Wnt3a, R&D systems (5036-WN) (protein, UniProt P56704 19-352, looked up)
Protein Wnt-3a: SYPIWWSLAVGPQYSSLGSQPILCASIPGLVPKQLRFCRNYVEIMPSVAEGIKIGIQECQHQFRGRRWNCTTVHDSLAIFGPVLDKATRESAFVHAIASAGVAFAVTRSCAEGTAAICGCSSRHQGSPGKGWKWGGCSEDIEFGGMVSREFADARENRPDARSAMNRHNNEAGRQAIASHMHLKCKCHGLSGSCEVKTCWWSQPDFRAIGDFLKDKYDSASEMVVEKHRESRGWVETLRPRYTYFKVPTERDLVYYEASPNFCEPNPETGSFGTRDRTCNVSSHGIDGCDLLCCGRGHNARAERRREKCRCVFHWCCYVSCQECTRVYDVHTCK
B2: EGF: EGF (100 ng/mL) treatment (protein, UniProt P01133 23-1207, looked up)
Pro-epidermal growth factor: PQHWSCPEGTLAGNGNSTCVGPAPFLIFSHGNSIFRIDTEGTNYEQLVVDAGVSVIMDFHYNEKRIYWVDLERQLLQRVFLNGSRQERVCNIEKNVSGMAINWINEEVIWSNQQEGIITVTDMKGNNSHILLSALKYPANVAVDPVERFIFWSSEVAGSLYRADLDGVGVKALLETSEKITAVSLDVLDKRLFWIQYNREGSNSLICSCDYDGGSVHISKHPTQHNLFAMSLFGDRIFYSTWKMKTIWIANKHTGKDMVRINLHSSFVPLGELKVVHPLAQPKAEDDTWEPEQKLCKLRKGNCSSTVCGQDLQSHLCMCAEGYALSRDRKYCEDVNECAFWNHGCTLGCKNTPGSYYCTCPVGFVLLPDGKRCHQLVSCPRNVSECSHDCVLTSEGPLCFCPEGSVLERDGKTCSGCSSPDNGGCSQLCVPLSPVSWECDCFPGYDLQLDEKSCAASGPQPFLLFANSQDIRHMHFDGTDYGTLLSQQMGMVYALDHDPVENKIYFAHTALKWIERANMDGSQRERLIEEGVDVPEGLAVDWIGRRFYWTDRGKSLIGRSDLNGKRSKIITKENISQPRGIAVHPMAKRLFWTDTGINPRIESSSLQGLGRLVIASSDLIWPSGITIDFLTDKLYWCDAKQSVIEMANLDGSKRRRLTQNDVGHPFAVAVFEDYVWFSDWAMPSVMRVNKRTGKDRVRLQGSMLKPSSLVVVHPLAKPGADPCLYQNGGCEHICKKRLGTAWCSCREGFMKASDGKTCLALDGHQLLAGGEVDLKNQVTPLDILSKTRVSEDNITESQHMLVAEIMVSDQDDCAPVGCSMYARCISEGEDATCQCLKGFAGDGKLCSDIDECEMGVPVCPPASSKCINTEGGYVCRCSEGYQGDGIHCLDIDECQLGEHSCGENASCTNTEGGYTCMCAGRLSEPGLICPDSTPPPHLREDDHHYSVRNSDSECPLSHDGYCLHDGVCMYIEALDKYACNCVVGYIGERCQYRDLKWWELRHAGHGQQQKVIVVAVCVVVLVMLLLLSLWGAHYYRTQKLLSKNPKNPYEESSRDVRSRRPADTEDGMSSCPQPWFVVIKEHQDLKNGGQPVAGEDGQAADGSMQPTSWRQEPQLCGMGTEQGCWIPVSSDKGSCPQVMERSFHMPSYGTQTLEGGVEKPHSLLSANPLWQQRALDPPHQMELTQ
modifications: Pro-epidermal growth factor
notes: EGF (100 ng/mL) treatment

Tests used:
GSK3β in MVBs = test: Co-localization of GSK3β with Rab7 and CD63 (immunofluorescence); assay type: cell-based
Description: (§1) PANC-1, AsPC-1, HEK293T, or HeLa cells were ﬁxed with 4% formaldehyde for 10-15 min and then blocked with 3% BSA and 0.1% Triton X-100 in PBS for 20 min at room temperature. Immunostaining was performed using the indicated antibody. Nuclei were counterstained with DAPI. Images were taken with a Leica Inverted Confocal SP8 (Leica, Germany).

[1] = tested on: GSK3β sequestration in Rab5+ endosomes, PANC-1 cells; test: Wnt-induced GSK3β within Rab5+ endosomes, PANC-1 cells; assay type: cell-based, human; details: Rab5 Q79L, n = 10
Description: as §1

[2] = tested on: β-catenin/TCF4 transcriptional activity; test: 7TGC reporter assay; assay type: cell-based, human; details: PANC-1 cells, EGF (100 ng/mL) or CQ (100 μM)
Description: The PCR products of STYK1, GSK3β, and Axin1 were cloned into pcDNA3.1-3×HA, pCMV-3×Flag (Sigma, E4401), and pCMV-mCherry (constructed by our lab) respectively. […] To make STYK1, β-catenin, GSK3β, or BLK mutants or truncations, a series of forwarding primers harboring the desired mutations were used in PCRs. The nucleotide sequences of all constructs were confirmed by DNA sequencing. […] DNA and interference RNA were transfected with Lipofectamine 3000 (Invitrogen, L3000015) according to the manufacturer’s instructions. shRNA for STYK1 #1: 5ʹ- [sequence] -3ʹ. #2: 5ʹ- [sequence] -3ʹ. siRNA for STYK1 was 5ʹ- [sequence] -3ʹ. siRNA for β-catenin was 5ʹ- [sequence] -3ʹ. siRNA for HRS was 5ʹ- [sequence] -3ʹ, siRNA for VPS24 was 5ʹ- [sequence] -3ʹ.

CyclinD1/Axin2/C-myc = test: Wnt target gene expression (western blot, qRT-PCR); assay type: cell-based, human; details: PANC-1 cells, EGF (100 ng/mL) or CQ (100 μM)
Description: Whole-cell extracts were prepared with 1% sodium dodecyl sulfate lysis buffer with freshly added 1% proteinase inhibitor cocktail (Biomake, B14001) and 1 mM phenylmethylsulfonyl fluoride (PMSF, MCE, HY-B0496). Western blot was performed as described previously.[20]
Total RNA was extracted from cultured pancreatic cancer cells using Trizol reagent (Invitrogen) according to the manufacturer’s protocol. qRT-PCR was performed as previously described.^3 The mRNA expression level for each sample was normalized to the expression of GAPDH using the 2 ^-ΔΔct method^4 with three biological replicates of comparative qRT-PCR. The following primer sequences were used for qRT-PCR: GAPDH, (forward) 5′- […] -3′ and (reverse) 5′- […] -3′; CyclinD1, (forward) 5′- […] -3′ and (reverse) 5′- […] -3′; C-myc, (forward) 5′- […] -3′ and (reverse) 5′- […] -3′; Axin2, (forward) 5′- […] -3′ and (reverse) 5′- […] -3′; STYK1, (forward) 5′- […] -3′ and (reverse) 5′- […] -3′. Amplification was performed in an ABI Q3 real-time PCR system using a SYBR Green master mix (YEASEN, 11201ES08).

Molecule	separation of GSK3β into MVBs (GSK3β in MVBs; Wnt activation, discussion summary)	co-localization of GSK3β with Rab7 and CD63 (GSK3β in MVBs; under Wnt3a treatment)	amount of GSK3β within Rab5+ endosomes [1]	Wnt signaling in the 7TGC system [2]	STYK1-mediated alteration of the Wnt/β-catenin target genes C-myc, Axin2 (CyclinD1/Axin2/C-myc)
B1	supports the separation of GSK3β into MVBs	detectable co-localization with Rab7 and CD63	remarkably increased the amount of GSK3β within Rab5^+ endosomes	–	–
B2	–	–	–	decreased Wnt signaling in the 7TGC system	down-regulated STYK1-mediated alteration of the Wnt/β-catenin target genes C-myc, Axin2
